Laboratory results: article PMC4570336
Where two headings read alike, the source gives them in different places.

What was measured:
[1] = system: Inactivated H2N2 influenza virus (whole virion) (Avian influenza virus H2N2 (strain not stated)); settings: 5'-biotin; scale: ohm
[2] = system: Inactivated H7N2 avian influenza virus (whole virion) (Avian influenza virus H7N2 (strain not stated)); settings: 5'-biotin; scale: ohm
[3] = system: Inactivated H1N1 influenza virus (whole virion) (Avian influenza virus H1N1 (strain not stated)); settings: 5'-biotin; scale: ohm
[4] = system: Inactivated H5N1 avian influenza virus (whole virion) (Avian influenza virus H5N1 (Scotland/59)); experiment: SPR; settings: 5'-biotin; cited from earlier work
[5] = system: Inactivated H5N1 avian influenza virus (whole virion) (Avian influenza virus H5N1 (Scotland/59))

Sequence | binding signal [1] | binding signal [2] | binding signal [3] | Kd [4] | binding signal (ohm (impedance increase)) ([5]; 5'-biotin) | binding signal (ohm (impedance increase)) [5]
GTGTGCATGGATAGCACGTAACGGTGTAGTAGATACGTGCGGGTAGGAAGAAAGGGAAATAGTTGTCCTGTTG [H5N1 aptamer] | -2000 | -2000 | -2000 | 4.65 nM | 61000 | 
CCGAATTCGAAGGACAAGAGGCGAAAAGATTTAAAGTAATCAAAGACTGAGCAACTCTTATCTTTTATGCTACGTCCCGC [control sequence (non-target aptamer)] |  |  |  |  |  | 282
